{"source": "paper PMC6230944", "about": "“Mitochondrial alternative oxidase‐dependent autophagy involved in ethylene‐mediated drought tolerance in Solanum lycopersicum”", "binders": {"B1": {"name": "ATG18h-competitor (mutated DRE) (dsDNA)", "DNA 1": "GCGGTGAAAAGATTGACGGACGAAACGTGA", "DNA 2": "TCACGTTTCGTCCGTCAATCTTTTCACCGC"}, "B2": {"name": "ATG18h promoter probe (WT DRE) (dsDNA)", "DNA 1": "B1 DNA 1 with T13C, T14C", "DNA 2": "B1 DNA 2 with A17G, A18G"}, "B3": {"name": "ATG8d promoter probe (WT DRE) (dsDNA)", "DNA 1": "TCACGTTACATATGACCGACATAAAGATAA", "DNA 2": "TTATCTTTATGTCGGTCATATGTAACGTGA"}, "B4": {"name": "ATG8d-competitor (mutated DRE) (dsDNA)", "DNA 1": "B3 DNA 1 with C17A, G18A", "DNA 2": "B3 DNA 2 with C13T, G14T"}}, "note": "Where a chain is given by its changes, count along the chain named."}
{"molecular_target": "ERF5 (Solanum lycopersicum, UniProt Q6Q4I4 1-244)", "sequence (Q6Q4I4 entry or part of it)": "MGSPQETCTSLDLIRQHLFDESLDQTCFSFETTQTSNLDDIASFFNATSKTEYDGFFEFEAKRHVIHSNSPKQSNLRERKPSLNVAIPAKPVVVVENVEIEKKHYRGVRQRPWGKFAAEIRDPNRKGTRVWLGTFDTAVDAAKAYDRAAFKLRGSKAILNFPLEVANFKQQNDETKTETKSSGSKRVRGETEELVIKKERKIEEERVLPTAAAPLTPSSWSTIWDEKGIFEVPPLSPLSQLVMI", "test": "EMSA; EMSA Kit with SYBR Green & SYPRO Ruby stains (Invitrogen), per kit instructions; buffer, salt, pH, temperature not stated", "conditions": "protein: recombinant; tags: pET-32a vector fusion (His control used); label: none (SYBR Green stain)"}
{"binder": "B1", "binding result": "no binding"}
{"binder": "B2", "binding result": "binds"}
{"binder": "B3", "binding result": "binds"}
{"binder": "B4", "binding result": "no binding"}
